Results from patent publication US20100272750A1.

What was measured:
HLA DRB1*0405 (human) [1] = experiment: competition with 125I probe peptide, purified HLA; crude peptide batch
HLA DRB1*0101 (human) [2] = experiment: as above
HLA DRB1*0401 (human) [3] = experiment: as above
HLA DRB1*0901 (human) [4] = experiment: as above
HLA DRB1*0404 (human) [5] = experiment: as above
HLA DRB1*1501 (human) [6] = experiment: as above
HLA DRB4*0101 (human) [7] = experiment: as above
HLA DRB1*0701 (human) [8] = experiment: as above
HLA DRB1*0802 (human) [9] = experiment: as above
HLA DRB1*1201 (human) [10] = experiment: as above
HLA DRB1*1101 (human) [11] = experiment: as above
HLA DRB1*0405 (human) [12] = experiment: competition with 125I probe peptide, purified HLA
HLA DRB1*0101 (human) [13] = experiment: competition with 125I probe peptide, purified HLA
HLA DRB1*0401 (human) [14] = experiment: competition with 125I probe peptide, purified HLA
HLA DRB1*0404 (human) [15] = experiment: competition with 125I probe peptide, purified HLA
HLA DRB1*1501 (human) [16] = experiment: competition with 125I probe peptide, purified HLA
HLA DRB4*0101 (human) [17] = experiment: competition with 125I probe peptide, purified HLA
HLA DRB5*0101 (human) = experiment: competition with 125I probe peptide, purified HLA
HLA DRB1*1302 (human) = experiment: competition with 125I probe peptide, purified HLA
HLA DRB1*0701 (human) [18] = experiment: competition with 125I probe peptide, purified HLA
HLA DRB1*0802 (human) [19] = experiment: competition with 125I probe peptide, purified HLA
HLA DRB1*1201 (human) [20] = experiment: competition with 125I probe peptide, purified HLA
HLA DRB1*1101 (human) [21] = experiment: competition with 125I probe peptide, purified HLA
HLA DRB3*0101 (human) = experiment: competition with 125I probe peptide, purified HLA
HLA DRB1*0901 (human) [22] = experiment: competition with 125I probe peptide, purified HLA
HLA DRB1*0301 (human) = experiment: competition with 125I probe peptide, purified HLA

Binder	IC50 (HLA DRB1*0405 (human) [12]) [µM]	IC50 (HLA DRB1*0101 (human) [13]) [µM]	IC50 (HLA DRB1*0401 (human) [14]) [µM]	IC50 (HLA DRB1*0404 (human) [15]) [µM]	IC50 (HLA DRB1*1501 (human) [16]) [µM]	IC50 (HLA DRB4*0101 (human) [17]) [µM]	IC50 (HLA DRB5*0101 (human)) [µM]	IC50 (HLA DRB1*1302 (human)) [µM]	IC50 (HLA DRB1*0701 (human) [18]) [µM]	IC50 (HLA DRB1*0802 (human) [19]) [µM]	IC50 (HLA DRB1*1201 (human) [20]) [µM]	IC50 (HLA DRB1*1101 (human) [21]) [µM]	other results
LQAIELQLTLETIYN (modifications not checked) [HPV16.E2.070 HTL epitope]													IC50 (HLA DRB1*0405 (human) [1]): 0.384 µM; IC50 (HLA DRB1*0101 (human) [2]): 0.042 µM; IC50 (HLA DRB1*0401 (human) [3]): 0.037 µM; IC50 (HLA DRB1*0901 (human) [4]): 1.43 µM; IC50 (HLA DRB1*0404 (human) [5]): 0.282 µM; IC50 (HLA DRB1*1501 (human) [6]): 0.688 µM; IC50 (HLA DRB4*0101 (human) [7]): 0.002 µM; IC50 (HLA DRB1*0701 (human) [8]): 3.28 µM; IC50 (HLA DRB1*0802 (human) [9]): 7.61 µM; IC50 (HLA DRB1*1201 (human) [10]): 0.268 µM; IC50 (HLA DRB1*1101 (human) [11]): 4.38 µM
QRFHNIRGRWTGRCM (modifications not checked) [HPV16.E6.130 HTL epitope]	4.47	0.036	2.9	4.11	17.2	4.55	0.919	5.31	0.277	0.894	14.6	0.574	
TGRCIACWRRPRTET (modifications not checked) [HPV31.E6.132 HTL epitope]	0.733	3.17	0.758	1.15	0.084	0.225	6.05	2.77	11.5	0.512	4.95	0.158	IC50 (HLA DRB3*0101 (human)): 5.96 µM; IC50 (HLA DRB1*0901 (human) [22]): 13.6 µM; IC50 (HLA DRB1*0301 (human)): 1.03 µM
